Test results taken from PMC11039998 (Nucleic Acids Research, 2024).
Where no end group is shown, it is not given here.

Biological target: Methyl binding domain (MBD) of MeCP2, wild-type (UniProt P51608 90-162)
Test: ITC

Sequence of Methyl binding domain (MBD) of MeCP2, wild-type (P51608 90-162): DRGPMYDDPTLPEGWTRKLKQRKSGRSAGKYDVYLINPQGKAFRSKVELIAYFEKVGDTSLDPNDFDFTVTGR

Kd [µM]	Binder
12	TKAARK(Me3)SAPAT [H3-derived peptide of the K27 region, trimethylated at K27]
3.4	Ac-TKAARKSAPAT-NH2 [H3-derived peptide of the K27 region, wild-type]
